The text below walks through data of patent US20170335007A1 (Xencor, published 2017).

Usually EC50 stands for the concentration needed to bring the measured effect to its halfway point. High values mean weaker potency, low ones greater potency. As a reminder, the Kd is the constant that tells how readily two partners part at equilibrium. For orientation: koff means a measure of how fast the partners let go of each other. The term kon denotes the rate constant with which the complex forms.

Changes are numbered by the printed parent chain.

Assay [1] deals with T1, human CD39 expressed on cells (human, UniProt P49961 1-510).
T1 sequence: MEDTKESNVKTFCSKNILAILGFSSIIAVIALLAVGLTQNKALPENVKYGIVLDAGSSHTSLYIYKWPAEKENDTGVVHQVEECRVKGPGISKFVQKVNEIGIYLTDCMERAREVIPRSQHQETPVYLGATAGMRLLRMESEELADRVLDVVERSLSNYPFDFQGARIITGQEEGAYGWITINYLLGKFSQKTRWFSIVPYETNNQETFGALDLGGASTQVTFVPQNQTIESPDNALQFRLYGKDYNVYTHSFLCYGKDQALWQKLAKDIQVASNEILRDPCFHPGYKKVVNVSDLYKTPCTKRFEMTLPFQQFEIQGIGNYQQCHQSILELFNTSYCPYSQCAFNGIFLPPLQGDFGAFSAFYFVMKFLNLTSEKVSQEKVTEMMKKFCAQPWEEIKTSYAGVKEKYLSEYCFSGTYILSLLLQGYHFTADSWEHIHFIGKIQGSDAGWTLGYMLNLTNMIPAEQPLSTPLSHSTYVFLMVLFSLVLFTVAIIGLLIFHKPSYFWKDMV
Description: cell-based or functional assay.

Assay [2] addresses T1, human CD39 expressed on cells. The assay is described as follows: cell-based or functional assay. This is another data set of the same source.
Assay [3] shares this target. Description: flow cytometry on JVM-13 cells (endogenous human CD39). The method, then:
Binding of antibody was also assessed in a cell line that expresses endogenous human CD39 (e.g. the B-prolymphocytic leukemia cell line JVM-13). Thirty-five anti-CD39 antibodies as described in Example 2 were tested for their binding to JVM-13 cells. […] Median fluorescence intensities for each primary antibody concentration were used to derive a flow EC50/Kd using the one site—specific binding with Hill slope model in Prism (GraphPad Prism Software). Results are shown as Flow EC50 in Table 8.

Assay [4] has the same target. Description: cell-based or functional assay. The source holds these as a separate data set.
Assay [5] has as its target T2, recombinant human CD39 (R&D Systems) (human, UniProt P49961 38-478).
T2 construct: bought; also called CD39 antigen (R&D Systems); ENTPD1
T2 sequence: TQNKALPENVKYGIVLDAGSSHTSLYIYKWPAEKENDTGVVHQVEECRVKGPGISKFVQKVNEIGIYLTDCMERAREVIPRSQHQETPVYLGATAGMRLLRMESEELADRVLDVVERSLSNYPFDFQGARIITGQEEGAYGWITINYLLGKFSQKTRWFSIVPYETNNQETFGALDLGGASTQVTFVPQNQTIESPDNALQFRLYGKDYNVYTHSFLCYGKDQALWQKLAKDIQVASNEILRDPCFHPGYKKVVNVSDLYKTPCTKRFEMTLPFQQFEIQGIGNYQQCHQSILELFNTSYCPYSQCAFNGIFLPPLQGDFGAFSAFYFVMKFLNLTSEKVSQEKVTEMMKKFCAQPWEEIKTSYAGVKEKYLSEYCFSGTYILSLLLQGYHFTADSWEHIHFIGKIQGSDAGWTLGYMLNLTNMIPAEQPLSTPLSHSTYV
Description: BLI (Octet QK384); antibody on anti-mouse IgG Fc sensor, recombinant human CD39 in solution. Here is the method: Additional binding assays were conducted. Affinity measurements of thirty-five purified anti-CD39 antibodies as described in Example 2 were carried out on the OctetQK384 sytem (ForteBio). After coating anti-mouse IgG Fc sensors with a purified anti-CD39 antibody, association and dissociation of recombinant human CD39 (R&D Systems) was monitored. Affinity (KD) and kinetic constants (ka and kd) were derived using ForteBio's software.
On the technique in general: BLI is a label-free optical method that tracks binding on a fibre tip over time.

In assay [6] the target is T2, recombinant human CD39 (R&D Systems). Description: SPR (ProteOn XPR36); antibody captured by anti-mouse antibody, CD39 in solution, 1:1 fit. The method, then: (§1) Affinity measurements of four exemplary purified anti-CD39 antibodies (5-13A, 5-71A, 5-165C and 9-31A) were also carried on the ProteOn XPR36 (BioRad) using a GLM sensor chip. The running buffer contained 10 mM HEPES, 150 mM NaCl, 0.005% Tween-20 at pH 7.4. All data were collected at 25 degrees C. Anti-mouse capturing antibody was amine coupled at four densities on flow cells using standard s—NHS/EDC activation. A dilution series of […], 16.6, 5.5 and 1.85 nM CD39 antigen (R&D Systems) was tested for binding to the anti-CD39 antibody surfaces. The data were processed by subtracting the response from the inter-reference surfaces as well as the buffer blank injection. The processed response data from four density surfaces were globally fit to a simple 1:1 interaction model using Scrubber 2 (Biologic Software Pty Ltd).

Assay [7] has the same target. Description: SPR (ProteOn XPR36); antibody captured by anti-mouse antibody, CD39 in solution, 1:1 fit; ProteOn XPR36 SPR, Table 9. Here is the method: as §1

B1: anti-CD39 monoclonal antibody 9-8B (antibody, V domains shown)
VH: QIQLVQSGPELKKPGETVKISCKASGYTFTHYGMNWVKQAPGKGLKWMGWINTYTGELTYADDFKGRFAFSLETSASTAYLQINNLKNEDTATYFCARRAYYRYDYVMDYWGQGTSVTVSS
VL: DIVMTQSQKFMSTSVGDRVSVTCKASHNVGTNVAWYQQKPGQSPKALIYSASYRYSGVPGRFTGSGSGTDFTLTISNVQSEDLAEYFCHQYNNYPYTFGGGTKLEIK
notes: purified mouse hybridoma antibody, IgG2a isotype; also called R21-9-8B; R29-9-8B
On to B1, for which the “% Inhibition of ATPase Activity in IM-9 cells (antibody at 1200 ng/mL)” value in assay [1] was 29.8%. Also, the “% Inhibition of ATPase Activity in HUVEC cells (antibody at 900 ng/mL)” value (from here on “% Inhibition … (antibody at 900 ng/mL)”) in assay [2] came out at 33.7%. In assay [3], this molecule displayed an EC50 of 0.26 nM. Further, the “% Inhibition of ATPase Activity in ARH-77 cells (antibody at 1200 ng/mL)” value in assay [4] was 36.5%. For the same molecule, in assay [5], the equilibrium dissociation constant (Kd) was determined as 3.1 nM, the koff was 0.000848 s⁻¹ and the kon was 273000 M⁻¹ s⁻¹.

B2: anti-CD39 monoclonal antibody 5-13A (antibody, V domains shown)
VH: QVQLQQSGPELVKPGASVRISCKASGYTFTGYYVHWVKQRPGQGLEWIGWIYPGNVNTKYNEKFKAKATLTADKSSSTGYMQLSRLTSEDSAVYFCARSPYYGTTYYYTMDYWGQGTSVTVSS
VL: EIVLTQSPAFMAASPGEKVTITCSVSLIISSRNLHWYQQKSETSPKPWIYGTSNLASGVPVRFSGSGSGTSYSLTISSMEAEDAATYYCQQWSDYPLTFGSGTKLEIK
notes: purified mouse hybridoma antibody, IgG2a isotype; also called R21-5-13A; R29-5-13A
Regarding B2, the “% Inhibition of ATPase Activity in IM-9 cells (antibody at 1200 ng/mL)” value in assay [1] came to 0.8%. Further, the “% Inhibition … (antibody at 900 ng/mL)” value in assay [2] is -4.4%. The molecule further came in with an EC50 in assay [3] of 0.18 nM. For the same molecule, in assay [6], the Kd is 1.16 nM, the dissociation rate constant (koff) was 0.000221 s⁻¹ and the kon was 191000 M⁻¹ s⁻¹. In assay [4], the “% Inhibition of ATPase Activity in ARH-77 cells (antibody at 1200 ng/mL)” value is -6.2%. Also, in assay [5], the dissociation constant Kd came out at 1.52 nM, the koff is 0.000159 s⁻¹ and the on-rate (kon) was determined as 105000 M⁻¹ s⁻¹.

B3: anti-CD39 monoclonal antibody 5-165C (antibody, V domains shown)
VH: EVQLVESGGDLVKPGGSLKLSCAAFGFTFSRYGMSWVRQTPDKRLEWVATITSGGIYTYYPDSVKGRFTISRDNAKNTLYLQMSSLKSEETAMYYCARHGQFGDYYGMDYWGQGTSVTVSS
VL: DVVMTQTPLSLPVSLGDQASISCRSSQSLLHSNGNTYLHWYLQKPGQSPKLLIYKVSNRFSGVPDRFSGSGSGTDFTLKISRVEAEDLGVYFCSQSTHVPYTFGGGTKLEIK
notes: purified mouse hybridoma antibody, IgG2a isotype; also called R21-5-165C; R29-5-165C
For the molecule B3, in assay [1], the “% Inhibition of ATPase Activity in IM-9 cells (antibody at 1200 ng/mL)” value is -0.1%. For the same molecule, in assay [2], the “% Inhibition … (antibody at 900 ng/mL)” value was -9.8%. Besides, in assay [3], a half-maximal response (EC50) required 0.11 nM. For the same molecule, the “% Inhibition of ATPase Activity in ARH-77 cells (antibody at 1200 ng/mL)” value in assay [4] is -2.5%. In addition, in assay [7], the dissociation constant Kd was 1.25 nM, the koff turned out to be 0.000109 s⁻¹ and the kon came out at 87500 M⁻¹ s⁻¹. In assay [5], the dissociation constant (Kd) was 2.53 nM, the off-rate constant (koff) was found to be 0.000196 s⁻¹ and the on-rate constant (kon) is 77400 M⁻¹ s⁻¹.

B4: anti-CD39 monoclonal antibody 5-71A (antibody, V domains shown)
VH: DVQLVESGGGLVQPGGSRKLSCAASGFTFSSFGMHWVRQAPEKGLELVAYISSGSTIRYYSDTVKGRFTISRDNPKNTLFLQMTSLRSEDTAMYYCARFLYEGFRYGMDYWGQGTSVTVSS
VL: B3 VL with V3L, L29I, L30V, H39E, V90I, F92Y, S94F, S96G, T97S, Y101N
notes: purified mouse hybridoma antibody, IgG2a isotype; also called R21-5-71A; R29-5-71A
On to B4, for which, in assay [3], the EC50 turned out to be 0.09 nM. Besides, in assay [6], the Kd came out at 0.09 nM, the koff amounted to 1.4e-05 s⁻¹ and the kon was 153000 M⁻¹ s⁻¹. Moreover, the “% Inhibition of ATPase Activity in ARH-77 cells (antibody at 1200 ng/mL)” value in assay [4] came out at 3.6%. For the same molecule, in assay [5], the Kd is 0.73 nM, the dissociation rate constant (koff) amounted to 5.22e-05 s⁻¹ and the kon came to 71100 M⁻¹ s⁻¹.
